The chains are these.
B1: … (peptide)
peptide: FLTAINYLL
B2: … (peptide)
peptide: ALCPRIHEV
B3: … (peptide)
peptide: VLHSKFWVV
B4: … (peptide)
peptide: AQADHLPQL
B5: … (peptide)
peptide: SLSNRLYYL
B6: … (peptide)
peptide: VLLDIQEVFQI
B7: … (peptide)
peptide: VTFKEYVTV
B8: … (peptide)
peptide: VLNDILVRA
B9: … (peptide)
peptide: ALLGMIIVGV
B10: … (peptide)
peptide: QLAPVFQRV
B11: … (peptide)
peptide: TLIDEQDIPLV
B12: … (peptide)
peptide: LLVSHLYLV
B13: … (peptide)
peptide: KLIFSVEAV
B14: … (peptide)
peptide: LLVPTSGIYFV
B15: … (peptide)
peptide: ALLGTKILL
B16: … (peptide)
peptide: FIFDEAEKL
B17: … (peptide)
peptide: SVVPDVRSV
B18: … (peptide)
peptide: TLLQRLTEV
B19: … (peptide)
peptide: TVVTRLDEI
B20: … (peptide)
peptide: SLFPDSLIV
B21: … (peptide)
peptide: FLAVGLVDV
B22: … (peptide)
peptide: FINDSIVYL
B23: … (peptide)
peptide: FLQDLEQRL
B24: … (peptide)
peptide: LLLPAVPVGA
B25: … (peptide)
peptide: SVDSHFQEV
B26: … (peptide)
peptide: TIYKDFVYI
B27: … (peptide)
peptide: LLLGDSALYL
B28: … (peptide)
peptide: RLFPDFFTRVAL
B29: … (peptide)
peptide: ALISWQPPRA
B30: … (peptide)
peptide: YLLPLLPAL
B31: … (peptide)
peptide: TLFGYSVVL
B32: … (peptide)
peptide: AIVKEIVNI
B33: … (peptide)
peptide: ALNPELVQA
B34: … (peptide)
peptide: YLVSEIFKA
B35: … (peptide)
peptide: GLLFSLRSV
B36: … (peptide)
peptide: YLLQSVNQLLL
B37: … (peptide)
peptide: NALDKVLSV
B38: … (peptide)
peptide: AVIKFLELL
B39: … (peptide)
peptide: YTLREVDTV
B40: … (peptide)
peptide: GQASYFYVA
B41: … (peptide)
peptide: TVFTDHMLTV
B42: … (peptide)
peptide: FLHDEKEGIYI
B43: … (peptide)
peptide: KLLDPQEFTL
B44: … (peptide)
peptide: ALADFMLSL
B45: … (peptide)
peptide: ALFAPLVHL
B46: … (peptide)
peptide: SQIPAQPSV
B47: … (peptide)
peptide: AVGPVHNSV
B48: … (peptide)
peptide: KLYEADFVL
B49: … (peptide)
peptide: GLLGSLFFL

From patent US20170165338A1 come the findings set out here.

The assay deals with HLA-A*02 (human). In words: UV-exchange b2m ELISA. (An ELISA detects its analyte on a solid surface through an enzyme-linked reagent.)
On to B1, for which the peptide exchange yield was 50 to 75%. For B2, the peptide exchange yield was more than 75%.

In turn, B3 showed a peptide exchange yield of 50 to 75%.

Take B4: the peptide exchange yield fell in the range of 20 to 49%. As to B5, the peptide exchange yield is 50 to 75%. On to B6, for which the peptide exchange yield lay in the range of 50 to 75%. Take B7: the peptide exchange yield fell in the range of 20 to 49%. The value for B8 was 50 to 75%. The value for B9 was less than 20%; that for B10 was 20 to 49%; that for B11 was 50 to 75%. In the case of B12 it was 20 to 49%; in that of B13, 50 to 75%.

B14 showed a peptide exchange yield of 50 to 75%. Take B15: the peptide exchange yield was in the range of 50 to 75%. The value for B16 was less than 20%; that for B17 was 20 to 49%; that for B18 was 50 to 75%. For B19, the peptide exchange yield lay in the range of 20 to 49%. In the case of B20 it was 20 to 49%; in that of B21, 50 to 75%. Take B22: the peptide exchange yield was in the range of 50 to 75%. The value for B23 was 50 to 75%; that for B24 was 50 to 75%; that for B25 was 20 to 49%. For B26, the peptide exchange yield was 20 to 49%.

Take B27: the peptide exchange yield fell in the range of 50 to 75%. For the molecule B28, the peptide exchange yield was 20 to 49%. In the case of B29 it was 50 to 75%; in that of B30, 50 to 75%; in that of B31, 50 to 75%. The value for B32 was 20 to 49%. The value for B33 was 20 to 49%; that for B34 was 50 to 75%; that for B35 was more than 75%.

B36 came in with a peptide exchange yield of 20 to 49%. The value for B37 was 50 to 75%; that for B38 was 50 to 75%; that for B39 was 20 to 49%. In the case of B40 it was 20 to 49%; in that of B41, 20 to 49%; in that of B42, 50 to 75%.

Regarding B43, the peptide exchange yield lay in the range of 50 to 75%. In the case of B44 it was 50 to 75%; in that of B45, 50 to 75%; in that of B46, 20 to 49%. In the case of B47 it was 20 to 49%; in that of B48, 20 to 49%; in that of B49, more than 75%.
